Data as given in PMC4259888.

Assays:
[1] = target: HIV-1 CA hexamers (A14C/E45C/W184A/M185A) (HIV-1); experiment: SEC; size-exclusion chromatographic profiles of purified individual CA hexamers, pentamers and monomers
[2] = target: HIV-1 CA pentamers (A21C/E22C/W184A/M185A) (HIV-1); experiment: as above

Substance	stoichiometry N [1]	stoichiometry N [2]
HIV-1 CA hexamers (A14C/E45C/W184A/M185A) (natural protein)	6	
HIV-1 CA pentamers (A21C/E22C/W184A/M185A) (natural protein)		5
